Data taken from paper PMC11756078, “Effects of genetic ablation and pharmacological inhibition of HuR on gene expression, iron metabolism, and hormone levels” (BMC Biology, 2025).

Key:
[1] = system: mCherry-HuR (human (HeLa HuR KO cells; HuR species implied)?); assay: RP-CONA (on-bead RNA pull-down, confocal imaging); conditions: Anisotropy: phosphate buffer pH 7.5, 25 mM MgCl (so in the source), 250 mM NaCl, 0.1% Tween 20, 5 mM DTT, temperature not stated, RP-CONA: cell extract on …
[2] = system: HuR (ELAV-like protein 1), recombinant (human); assay: fluorescence anisotropy; conditions: Anisotropy: phosphate buffer pH 7.5, 25 mM MgCl (so in the source), 250 mM NaCl, 0.1% Tween 20, 5 mM DTT, temperature not stated; RP-CONA: cell extract on …
[3] = target: HuR (Recombinant Human Elav-like protein 1, ELAVL1/HuR) (Homo sapiens, UniProt Q15717); assay: fluorescence anisotropy, displacement of pri-miR-7-1 CTL 6-FAM RNA from purified recombinant HuR; RP-CONA in HeLa extracts gave IC50 […]; assay type: binding
Chain of HuR (Recombinant Human Elav-like protein 1, ELAVL1/HuR) (Q15717 2-326): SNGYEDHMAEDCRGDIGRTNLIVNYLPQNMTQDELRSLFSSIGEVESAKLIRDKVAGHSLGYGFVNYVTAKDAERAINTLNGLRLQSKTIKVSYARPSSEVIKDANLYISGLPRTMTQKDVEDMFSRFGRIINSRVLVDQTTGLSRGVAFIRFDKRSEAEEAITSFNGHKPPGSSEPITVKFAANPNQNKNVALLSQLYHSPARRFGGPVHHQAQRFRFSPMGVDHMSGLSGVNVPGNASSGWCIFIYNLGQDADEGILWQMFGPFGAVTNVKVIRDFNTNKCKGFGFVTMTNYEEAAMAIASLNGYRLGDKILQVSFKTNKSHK

Molecule: pri-miR-7 CTL (pri-miR-7-6-FAM), RP-CONA
- binding signal ([1]; 20 uM Eltrombopag): 80 % inhibition
- IC50 ([1]; IC50 is of Eltrombopag (0-50 uM) inhibiting the complex, not HuR affinity): 5.9 µM

Molecule: pri-miR-7-1-6-FAM CTL, anisotropy
- IC50 [2]: 19 µM

Molecule: CC1=NN(c2ccc(C)c(C)c2)C(=O)/C1=N\Nc1cccc(-c2cccc(C(=O)O)c2)c1O [E20, Eltrombopag]
- IC50 [3]: 19 µM
